The source of these data is patent publication US11994512B2, “Single-cell genomic methods to generate ex vivo cell systems that recapitulate in vivo biology with improved fidelity” (Massachusetts Institute of Technology, priority 2018, dated 2024).

The test system of this experiment is intracellular proteome of ENR+CD and ENR organoids. As to the kind of experiment: LC-MS/MS TMT proteomics of ENR+CD versus ENR organoids. It counts as cell-based, C57BL/6 mice. The conditions noted are these: for Average logFC / M1-1 Log2 Median Normalized / M1-2 Log2 Median Normalized / M2-1 Log2 Median Normalized / M2-2 Log2 Median Normalized: protein abundance, ENR+CD versus ENR organoids; for Average logFC: aggregate of the four sample pairs; for M1-1 Log2 Median Normalized: replicate M1-1; for M1-1 Log2 Median Normalized / M1-2 Log2 Median Normalized / M2-1 Log2 Median Normalized / M2-2 Log2 Median Normalized: log2 ratio; for M1-2 Log2 Median Normalized: replicate M1-2; for M2-1 Log2 Median Normalized: replicate M2-1; for M2-2 Log2 Median Normalized: replicate M2-2; for change: up = enriched in ENR+CD, down = enriched in ENR, FDR<0.05 and log fold change cut-off.

B1: Q3U9N9 (protein, UniProt Q3U9N9 1-512, looked up)
chain: MVPSQEEPAAERETNEAQPPGPAPSDDAPLPGPGPSDVSDVAAEKVEVELTRSAGSEPPVPPEGGWGWLVMLAAMWCNGSVFGIQNAYGVLFVSMLDTFKAKDDDNMAFKTAWVGSLSMGMIFFCCPIVSVFTDMFGCRRTAVVGAAVGFIGLMSSSFVSSIEPLYLTYGIIFACGCSFAYQPSLVILGHYFKKRLGLVNGIVTAGSSVFTILLPLLLGNLISSVKLFNTLRILCIFMFVLFLAGFTYRPLVPSTKEKESGGSRSSFFSRRKLSPPKKVFNFALFKETTYAVWAAGIPLALFGYFVPYVHLMNHVKERFQDVNNKEVLFMCIGITSGVGRLLFGRIADYLPGVKKVYLQVLSFFFIGLMSMMIPLCSAFGALIAVCLAMGLFDGCFISIMAPIAFELVGPQDASQAIGFLLGFMSIPMTVGPPIAGLLHDKLGTYDVAFYLAGIPPFVGGVVLCLIPWIHSKKQRKISKNAGGEKMEKMLENQSSLLSGSSGIFKKDSASII
modifications: full-length
As to B1, the “Average logFC” value was −1.314, the “M1-1 Log2 Median Normalized” value is listed as −1.309, the “M1-2 Log2 Median Normalized” value is on record as −0.055 and the “M2-1 Log2 Median Normalized” value is reported as −1.4695. For the same molecule, the “M2-2 Log2 Median Normalized” value is on record as −2.424 and the change result is given as “down”.

B2: Q33DR2 (protein, UniProt Q33DR2 1-409, looked up)
chain: MAMRWSCWRRGCSWRPTAVGSPRRERPGCVEPLGTRAASDTRAQIPYFSLMKILMSASPTMHSISQFHQRTPAMCSCRQTQSGEKYSDPFKLGWRDLKGLYEDIRKELHISTRELKDMSEYYFDGKGKAFRPIIVVLMARACNIHHNNAREMQASQRSIALVAEMIHTATLVHDDVIDDASSRRGKHTVNKIWGEKKAVLAGDLILSAASVALARIGNTAVVSMLAQVIEDLVRGEFLQLGSKENENERFAHYLEKTFKKTASLIANSCKAVSVLGCPDPVVHEIAYQYGKNVGIAFQLIDDVLDFTSCSDQMGKPTSADLKLGIATGPVLFACQQFPEMNAMIMRRFSLPGDVDRARQYVLQSDGVQQTTYLAQQYCHKAVREIRKLRPSTERDALIQLSESVLTRDK
modifications: full-length
In the case of B2, the “Average logFC” value is on record as −1.389, the “M1-1 Log2 Median Normalized” value is −1.379, the “M1-2 Log2 Median Normalized” value was −1.779 and the “M2-1 Log2 Median Normalized” value was −1.2185. Further, the “M2-2 Log2 Median Normalized” value is −1.389 and the change result was “down”.

B3: Q00623 (protein, UniProt Q00623 1-264, looked up)
chain: MKAVVLAVALVFLTGSQAWHVWQQDEPQSQWDKVKDFANVYVDAVKDSGRDYVSQFESSSLGQQLNLNLLENWDTLGSTVSQLQERLGPLTRDFWDNLEKETDWVRQEMNKDLEEVKQKVQPYLDEFQKKWKEDVELYRQKVAPLGAELQESARQKLQELQGRLSPVAEEFRDRMRTHVDSLRTQLAPHSEQMRESLAQRLAELKSNPTLNEYHTRAKTHLKTLGEKARPALEDLRHSLMPMLETLKTQVQSVIDKASETLTAQ
modifications: full-length
In the case of B3, the “Average logFC” value is on record as −2.027, the “M1-1 Log2 Median Normalized” value is on record as −1.311, the “M1-2 Log2 Median Normalized” value is recorded as −2.229 and the “M2-1 Log2 Median Normalized” value is −2.6175. Moreover, the “M2-2 Log2 Median Normalized” value is recorded as −1.952 and the change entry is listed as “down”.

B4: Q03157 (protein, UniProt Q03157 1-654, looked up)
chain: MGPTSPAARGQGRRWRPPPLPLLLPLSLLLLRAQLAVGNLAVGSPSAAEAPGSAQVAGLCGRLTLHRDLRTGRWEPDPQRSRRCLLDPQRVLEYCRQMYPELHIARVEQAAQAIPMERWCGGTRSGRCAHPHHEVVPFHCLPGEFVSEALLVPEGCRFLHQERMDQCESSTRRHQEAQEACSSQGLILHGSGMLLPCGSDRFRGVEYVCCPPPATPNPSGMAAGDPSTRSWPLGGRAEGGEDEEEVESFPQPVDDYFVEPPQAEEEEEEEEERAPPPSSHTPVMVSRVTPTPRPTDGVDVYFGMPGEIGEHEGFLRAKMDLEERRMRQINEVMREWAMADSQSKNLPKADRQALNEHFQSILQTLEEQVSGERQRLVETHATRVIALINDQRRAALEGFLAALQGDPPQAERVLMALRRYLRAEQKEQRHTLRHYQHVAAVDPEKAQQMRFQVQTHLQVIEERMNQSLGLLDQNPHLAQELRPQIQELLLAEHLGPSELDASVPGSSSEDKGSLQPPESKDDPPVTLPKGSTDQESSSSGREKLTPLEQYEQKVNASAPRGFPFHSSDIQRDELAPSGTGVSREALSGLLIMGAGGGSLIVLSLLLLRKKKPYGTISHGVVEVDPMLTLEEQQLRELQRHGYENPTYRFLEERP
modifications: full-length
Regarding B4, the “Average logFC” value is reported as 1.178, the “M1-1 Log2 Median Normalized” value is 1.177, the “M1-2 Log2 Median Normalized” value turned out to be 0.671 and the “M2-1 Log2 Median Normalized” value amounted to 1.2695. Moreover, the “M2-2 Log2 Median Normalized” value worked out at 1.559 and the change result was “up”.

B5: P98063 (protein, UniProt P98063 1-991, looked up)
chain: MPGVARPPLPLLSLPLLLLLLLLPRAGRPLDLADYTYDLGEEDAPELLNYKDPCKAAAFLGDIALDEEDLRAFQVQQAAVLRQQTARRPSIKAAGNSSALGGQGTSGQPQRESRGRWRGRPRSRRAATSRPERVWPDGVIPFVIGGNFTGSQRAVFRQAMRHWEKHTCVTFLERTDEDSYIVFTYRPCGCCSYVGRRGGGPQAISIGKNCDKFGIVVHELGHVIGFWHEHTRPDRDRHVSIVRENIQPGQEYNFLKMEVQEVESLGETYDFDSIMHYARNTFSRGIFLDTIVPKYEVNGVKPSIGQRTRLSKGDIAQARKLYKCPACGETLQDSTGNFSSPEYPNGYSAHMHCVWRISVTPGEKIILNFTSMDLYRSRLCWYDYVEVRDGFWRKAPLRGRFCGGKLPEPIVSTDSRLWVEFRSSSNWVGKGFFAVYEAICGGDVKKDNGHIQSPNYPDDYRPSKVCIWRIQVSEGFHVGLTFQSFEIERHDSCAYDYLEVRDGHSESSNLIGRYCGYEKPDDIKSTSSRLWLKFVSDGSINKAGFAVNFFKEVDECSRPNRGGCEQRCLNTLGSYKCSCDPGYELAPDKRRCEAACGGFLTKLNGSITSPGWPKEYPPNKNCIWQLVAPTQYRISLQFDFFETEGNDVCKYDFVEVRSGLTADSKLHGKFCGSEKPEVITSQYNNMRVEFKSDNTVSKKGFKAHFFSDKDECSKDNGGCQQDCVNTFGSYECQCRSGFVLHDNKHDCKEAGCEHKVTSTSGTITSPNWPDKYPSKKECTWAISSTPGHRVKLTFVEMDIESQPECAYDHLEVFDGRDAKAPVLGRFCGSKKPEPVLATGNRMFLRFYSDNSVQRKGFQASHSTECGGQVRADVKTKDLYSHAQFGDNNYPGGVDCEWVIVAEEGYGVELVFQTFEVEEETDCGYDYIELFDGYDSTAPRLGRYCGSGPPEEVYSAGDSVLVKFHSDDTISKKGFHLRYTSTKFQDTLHSRK
modifications: full-length
As for B5, the “Average logFC” value is recorded as 1.311, the “M1-1 Log2 Median Normalized” value is on record as 1.296, the “M1-2 Log2 Median Normalized” value is reported as 1.342 and the “M2-1 Log2 Median Normalized” value is given as 1.2215. Also, the “M2-2 Log2 Median Normalized” value worked out at 1.383 and the change result was “up”.

B6: Q3U0B3 (protein, UniProt Q3U0B3 1-260, looked up)
chain: MTRAGMERWRDRLALVTGASGGIGAAVARALVQQGLKVVGCARTVGNIEELAAECKSAGYPGTLIPYRCDLSNEEDILSMFSAVRSQHSGVDICINNAGMARPDTLLSGSTSGWKDMFNVNVLALSICTREAYQSMKERNIDDGHIININSMCGHRVPPQSVIHFYSATKYAVTALTEGLRQELLEAQTHIRATCISPGLVETQFAFKLHDKDPGEAAATYEHIKCLRPEDVAEAVIYVLSTPPHVQVGDIQMRPTEQVT
modifications: full-length
Turning to B6, the “Average logFC” value is reported as −1.3, the “M1-1 Log2 Median Normalized” value is given as −1.054, the “M1-2 Log2 Median Normalized” value is on record as −1.691 and the “M2-1 Log2 Median Normalized” value is on record as −1.5305. The “M2-2 Log2 Median Normalized” value is recorded as −0.923 and the change entry is given as “down”.

B7: Q07797 (protein, UniProt Q07797 1-577, looked up)
chain: MALLWLLSVFLLVPGTQGTEDGDMRLVNGASANEGRVEIFYRGRWGTVCDNLWNLLDAHVVCRALGYENATQALGRAAFGPGKGPIMLDEVECTGTESSLASCRSLGWMVSRCGHEKDAGVVCSNDTTGLHILDLSGELSDALGQIFDSQQGCDLFIQVTGQGYEDLSLCAHTLILRTNPEAQALWQVVGSSVIMRVDAECMPVVRDFLRYFYSRRIEVSMSSVKCLHKLASAYGATELQDYCGRLFATLLPQDPTFHTPLDLYAYARATGDSMLEDLCVQFLAWNFEPLTQSESWSAVPTTLIQALLPKSELAVSSELDLLKAVDQWSTETIASHEDIERLVEQVRFPMMLPQELFELQFNLSLYQDHQALFQRKTMQALEFHTVPVEVLAKYKGLNLTEDTYKPRLYTSSTWSSLVMASTWRAQRYEYNRYNQLYTYGYGSVARYNSYQSFQTPQHPSFLFKDKQISWSATYLPTMQSCWNYGFSCTSNELPVLGLTTSSYSNPTIGYENRVLILCGGYSVVDVTSFEGSKAPIPTALDTNSSKTPSLFPCASGAFSSFRVVIRPFYLTNSTDMV
modifications: full-length
Consider B7, for which the “Average logFC” value is 1.146, the “M1-1 Log2 Median Normalized” value stood at 1.212, the “M1-2 Log2 Median Normalized” value is 1.255 and the “M2-1 Log2 Median Normalized” value is 1.1065. The “M2-2 Log2 Median Normalized” value is on record as 1.011 and the change result is given as “up”.

B8: Q05186 (protein, UniProt Q05186 1-325, looked up)
chain: MARGGRLGLALGLLLALVLALRAKPTVRKERVVRPDSELGERPPEDNQSFQYDHEAFLGKEDSKTFDQLSPDESKERLGKIVDRIDSDGDGLVTTEELKLWIKRVQKRYIYDNVAKVWKDYDRDKDEKISWEEYKQATYGYYLGNPAEFHDSSDHHTFKKMLPRDERRFKASDLDGDLTATREEFTAFLHPEEFEHMKEIVVLETLEDIDKNGDGFVDQDEYIADMFSHEDNGPEPDWVLSEREQFNDFRDLNKDGKLDKDEIRHWILPQDYDHAQAEARHLVYESDKNKDEMLTKEEILDNWNMFVGSQATNYGEDLTKNHDEL
modifications: full-length
With B8, the “Average logFC” value came to 1.307, the “M1-1 Log2 Median Normalized” value is listed as 1.602, the “M1-2 Log2 Median Normalized” value is 1.092 and the “M2-1 Log2 Median Normalized” value turned out to be 1.0235. The “M2-2 Log2 Median Normalized” value is recorded as 1.511 and the change entry was “up”.

B9: Q08652 (protein, UniProt Q08652 1-134, looked up)
chain: MTKDQNGTWEMESNENFEGYMKALDIDFATRKIAVRLTQTKIITQDGDNFKTKTNSTFRNYDLDFTVGVEFDEHTKGLDGRHVKTLVTWEGNTLVCVQKGEKENRGWKQWVEGDKLYLELTCGDQVCRQVFKKK
modifications: full-length
As for B9, the “Average logFC” value is −1.48, the “M1-1 Log2 Median Normalized” value is given as −1.364, the “M1-2 Log2 Median Normalized” value is −2.41 and the “M2-1 Log2 Median Normalized” value was −1.7785. For the same molecule, the “M2-2 Log2 Median Normalized” value was −0.366 and the change result is reported as “down”.
